Results from PMC12881670, “Investigation into ligand selectivity and bias at the formyl peptide receptor family” (The Journal of Pharmacology and Experimental Therapeutics, 2025).
Where no end group is shown, it is not given here. The star is where a group is joined. For = O=C*

T1: FLAG-tagged mouse Fpr2 (Mm_Fpr2) (mouse, UniProt O88536 1-351)
T1 sequence (looked up): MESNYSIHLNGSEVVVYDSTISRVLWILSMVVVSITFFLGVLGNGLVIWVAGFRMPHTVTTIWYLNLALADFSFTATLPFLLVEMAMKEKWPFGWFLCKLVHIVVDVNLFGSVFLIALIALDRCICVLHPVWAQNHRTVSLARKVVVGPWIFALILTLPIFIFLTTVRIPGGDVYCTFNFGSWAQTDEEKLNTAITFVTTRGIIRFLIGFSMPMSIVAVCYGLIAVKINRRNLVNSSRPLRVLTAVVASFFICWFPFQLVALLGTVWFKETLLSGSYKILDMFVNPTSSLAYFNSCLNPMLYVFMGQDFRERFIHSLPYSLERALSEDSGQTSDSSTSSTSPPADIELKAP

T2: FLAG-tagged mouse Fpr1 (Mm_Fpr1) (mouse, UniProt P33766 1-364)
T2 sequence (looked up): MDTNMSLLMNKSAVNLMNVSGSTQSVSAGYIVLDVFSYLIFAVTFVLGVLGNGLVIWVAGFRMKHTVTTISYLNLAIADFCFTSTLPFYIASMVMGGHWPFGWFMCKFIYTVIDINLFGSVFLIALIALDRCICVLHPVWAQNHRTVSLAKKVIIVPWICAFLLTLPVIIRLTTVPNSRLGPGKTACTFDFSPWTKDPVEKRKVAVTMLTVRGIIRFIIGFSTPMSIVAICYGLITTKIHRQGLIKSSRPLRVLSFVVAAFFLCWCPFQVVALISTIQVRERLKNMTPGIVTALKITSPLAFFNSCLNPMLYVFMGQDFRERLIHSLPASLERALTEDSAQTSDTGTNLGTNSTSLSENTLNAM

T3: FLAG-tagged human FPR2 (Hs_FPR2) (human, UniProt P25090 1-351)
T3 sequence (looked up): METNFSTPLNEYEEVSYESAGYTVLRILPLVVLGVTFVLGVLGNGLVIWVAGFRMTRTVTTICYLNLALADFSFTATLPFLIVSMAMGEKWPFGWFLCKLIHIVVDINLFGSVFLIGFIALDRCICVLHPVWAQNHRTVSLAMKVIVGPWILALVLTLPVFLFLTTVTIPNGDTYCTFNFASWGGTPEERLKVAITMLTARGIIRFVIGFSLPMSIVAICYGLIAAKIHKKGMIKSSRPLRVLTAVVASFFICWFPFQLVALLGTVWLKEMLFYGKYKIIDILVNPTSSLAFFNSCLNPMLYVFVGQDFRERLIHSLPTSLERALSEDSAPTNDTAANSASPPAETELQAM

T4: FLAG-tagged human FPR1 (Hs_FPR1) (human, UniProt P21462 1-350)
T4 sequence (looked up): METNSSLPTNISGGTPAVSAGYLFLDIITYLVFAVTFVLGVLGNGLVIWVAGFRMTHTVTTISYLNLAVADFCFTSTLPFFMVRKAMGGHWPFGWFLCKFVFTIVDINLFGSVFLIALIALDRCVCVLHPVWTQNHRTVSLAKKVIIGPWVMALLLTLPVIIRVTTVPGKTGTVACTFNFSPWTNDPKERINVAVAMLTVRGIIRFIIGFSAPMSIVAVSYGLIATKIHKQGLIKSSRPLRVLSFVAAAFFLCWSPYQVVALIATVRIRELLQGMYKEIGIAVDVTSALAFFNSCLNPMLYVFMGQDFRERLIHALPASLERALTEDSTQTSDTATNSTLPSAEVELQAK

T5: FLAG-Hs_FPR1 C-terminally fused to Renilla Luciferase 8 (human, UniProt P21462 1-350)
T5 sequence (looked up): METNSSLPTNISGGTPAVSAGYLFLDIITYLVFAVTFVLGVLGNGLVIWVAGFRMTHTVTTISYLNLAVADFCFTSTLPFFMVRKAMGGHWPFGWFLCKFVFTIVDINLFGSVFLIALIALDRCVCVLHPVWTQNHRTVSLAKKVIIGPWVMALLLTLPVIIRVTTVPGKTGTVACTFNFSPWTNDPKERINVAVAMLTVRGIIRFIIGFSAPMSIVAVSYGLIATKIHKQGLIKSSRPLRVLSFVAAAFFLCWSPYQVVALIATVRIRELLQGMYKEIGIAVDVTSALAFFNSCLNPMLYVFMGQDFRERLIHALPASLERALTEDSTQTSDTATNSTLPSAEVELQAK

T6: FLAG-Hs_FPR2 C-terminally fused to Renilla Luciferase 8 (human, UniProt P25090 1-351)
T6 sequence (looked up): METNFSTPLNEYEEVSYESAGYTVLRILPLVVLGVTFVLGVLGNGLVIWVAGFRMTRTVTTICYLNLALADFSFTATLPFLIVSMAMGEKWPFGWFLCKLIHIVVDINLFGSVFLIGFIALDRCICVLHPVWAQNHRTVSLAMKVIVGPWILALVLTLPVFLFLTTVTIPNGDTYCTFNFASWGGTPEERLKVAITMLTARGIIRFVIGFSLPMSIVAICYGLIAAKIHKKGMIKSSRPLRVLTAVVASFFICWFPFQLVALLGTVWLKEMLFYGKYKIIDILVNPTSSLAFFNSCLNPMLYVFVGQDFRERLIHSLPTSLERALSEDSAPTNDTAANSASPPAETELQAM

T7: FLAG-Mm_Fpr1 C-terminally fused to Renilla Luciferase 8 (mouse, UniProt P33766 1-364)
T7 sequence (looked up): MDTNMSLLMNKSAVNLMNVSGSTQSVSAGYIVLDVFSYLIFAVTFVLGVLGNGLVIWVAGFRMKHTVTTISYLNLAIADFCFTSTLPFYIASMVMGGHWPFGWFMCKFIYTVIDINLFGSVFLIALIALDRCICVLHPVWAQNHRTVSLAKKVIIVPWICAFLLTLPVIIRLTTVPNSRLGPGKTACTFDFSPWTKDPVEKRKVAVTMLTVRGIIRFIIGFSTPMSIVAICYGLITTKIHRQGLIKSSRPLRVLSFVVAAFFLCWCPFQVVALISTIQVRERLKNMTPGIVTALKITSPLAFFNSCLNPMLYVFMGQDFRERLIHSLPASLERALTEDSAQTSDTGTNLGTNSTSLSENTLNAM

T8: FLAG-Mm_Fpr2 C-terminally fused to Renilla Luciferase 8 (mouse, UniProt O88536 1-351)
T8 sequence (looked up): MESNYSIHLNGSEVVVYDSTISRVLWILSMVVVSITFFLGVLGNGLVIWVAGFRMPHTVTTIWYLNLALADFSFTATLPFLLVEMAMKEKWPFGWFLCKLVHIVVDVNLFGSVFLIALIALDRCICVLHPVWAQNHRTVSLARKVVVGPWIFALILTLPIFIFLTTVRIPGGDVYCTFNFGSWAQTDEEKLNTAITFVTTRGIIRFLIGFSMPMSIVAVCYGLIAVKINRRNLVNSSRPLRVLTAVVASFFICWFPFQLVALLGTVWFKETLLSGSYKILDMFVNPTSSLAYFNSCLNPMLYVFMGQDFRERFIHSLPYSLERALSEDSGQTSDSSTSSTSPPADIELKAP


Legend:
[1] = target: T1, FLAG-tagged mouse Fpr2 (Mm_Fpr2)
[2] = target: T2, FLAG-tagged mouse Fpr1 (Mm_Fpr1)
[3] = target: T3, FLAG-tagged human FPR2 (Hs_FPR2)
[4] = target: T4, FLAG-tagged human FPR1 (Hs_FPR1)
[5] = target: T4, FLAG-tagged human FPR1 (Hs_FPR1); experiment: flow cytometry on cells; competition binding: HEK293 cells stably expressing the receptor, lifted in PBS, on ice 90 min with 10 nM K(5/6-FAM)-WKYMVm and increasing unlabeled ligand; mean fluorescence of 5000 cells as % of that without competitor; One site-Fit logIC50
[6] = target: T2, FLAG-tagged mouse Fpr1 (Mm_Fpr1); remark: listed apart in the source
[7] = target: T3, FLAG-tagged human FPR2 (Hs_FPR2); remark: listed apart in the source
[8] = target: T4, FLAG-tagged human FPR1 (Hs_FPR1); remark: listed apart in the source
[9] = target: T1, FLAG-tagged mouse Fpr2 (Mm_Fpr2); remark: listed apart in the source
[10] = target: T5, FLAG-Hs_FPR1 C-terminally fused to …; experiment: cell-based or functional assay
[11] = target: T6, FLAG-Hs_FPR2 C-terminally fused to …; experiment: cell-based or functional assay
[12] = target: T7, FLAG-Mm_Fpr1 C-terminally fused to …; experiment: cell-based or functional assay
[13] = target: T8, FLAG-Mm_Fpr2 C-terminally fused to …; experiment: cell-based or functional assay
[14] = target: T5, FLAG-Hs_FPR1 C-terminally fused to …; experiment: cell-based or functional assay; remark: listed apart in the source
[15] = target: T6, FLAG-Hs_FPR2 C-terminally fused to …; experiment: cell-based or functional assay; remark: listed apart in the source
[16] = target: T7, FLAG-Mm_Fpr1 C-terminally fused to …; experiment: cell-based or functional assay; remark: listed apart in the source
[17] = target: T8, FLAG-Mm_Fpr2 C-terminally fused to …; experiment: cell-based or functional assay; remark: listed apart in the source

Row | Molecule | receptor internalization (flow cytometry): Emax (% of 1 μM WKYMVm) [1] [%] | receptor internalization (flow cytometry): Log EC50 (M) [1] [log M] | receptor internalization (flow cytometry): Emax (% of 1 μM WKYMVm) [2] [%] | receptor internalization (flow cytometry): Log EC50 (M) [2] [log M] | receptor internalization (flow cytometry): Emax (% of 1 μM WKYMVm) [3] [%] | receptor internalization (flow cytometry): Log EC50 (M) [3] [log M] | receptor internalization (flow cytometry): Emax (% of 1 μM WKYMVm) [4] [%] | receptor internalization (flow cytometry): Log EC50 (M) [4] [log M] | Log IC50 [5] [log M] | Max Comp (%) [5] [%] | ERK1/2 phosphorylation (Western blot): Emax (% of 1 μM WKYMVm) [6] [%] | ERK1/2 phosphorylation (Western blot): Log EC50 (M) [6] [log M] | ERK1/2 phosphorylation (Western blot): Emax (% of 1 μM WKYMVm) [7] [%] | ERK1/2 phosphorylation (Western blot): Log EC50 (M) [7] [log M] | ERK1/2 phosphorylation (Western blot): Emax (% of 1 μM WKYMVm) [8] [%] | ERK1/2 phosphorylation (Western blot): Log EC50 (M) [8] [log M] | ERK1/2 phosphorylation (Western blot): Emax (% of 1 μM WKYMVm) [9] [%] | ERK1/2 phosphorylation (Western blot): Log EC50 (M) [9] [log M] | also measured
1 | fMet-Leu-Phe (fMLF) (peptide) | 54.4 | -3.8 | 92.5 | -5.35 | 0.343 | -8.95 | 92.1 | -7.38 | -6.19 | 88 | 72.7 | -5.64 | 40.2 | -4.82 | 143 | -8.91 | – | – | –
2 | For-MTPMRKINPLMKLIN [MCT-2 (Formyl-… from Cytochrome b)] | 43.9 | -8.24 | – | – | – | – | – | – | – | – | – | – | – | – | – | – | 169 | -6.96 | –
3 | For-MLFK [fMet-Leu-Phe-Lys (fMLFK)] | 81.6 | -4.94 | 179 | -5.21 | 99.9 | -4.48 | 79.3 | -7.79 | -6.23 | 63.3 | 140 | -6.07 | 74.3 | -5.88 | 112 | -8.16 | 176 | -5.91 | BRET of receptor-RLuc8 with Arrestin 3-YFP: Emax (% of 1 μM WKYMVm) [10]: 97.4%; BRET of receptor-RLuc8 with Arrestin 3-YFP: Log EC50 (M) [10]: -7.45 log M; BRET of receptor-RLuc8 with Arrestin 3-YFP: Emax (% of 1 μM WKYMVm) [11]: 92.7%; BRET of receptor-RLuc8 with Arrestin 3-YFP: Log EC50 (M) [11]: -4.44 log M; BRET of receptor-RLuc8 with Arrestin 3-YFP: Emax (% of 1 μM WKYMVm) [12]: 95.2%; BRET of receptor-RLuc8 with Arrestin 3-YFP: Log EC50 (M) [12]: -5.14 log M; BRET of receptor-RLuc8 with Arrestin 3-YFP: Emax (% of 1 μM WKYMVm) [13]: 72.5%; BRET of receptor-RLuc8 with Arrestin 3-YFP: Log EC50 (M) [13]: -4.79 log M; BRET of receptor-RLuc8 with Venus-mGsi: Emax (% of 1 μM WKYMVm) [14]: 104%; BRET of receptor-RLuc8 with Venus-mGsi: Log EC50 (M) [14]: -7.07 log M; BRET of receptor-RLuc8 with Venus-mGsi: Emax (% of 1 μM WKYMVm) [15]: 80.7%; BRET of receptor-RLuc8 with Venus-mGsi: Log EC50 (M) [15]: -4.57 log M; BRET of receptor-RLuc8 with Venus-mGsi: Emax (% of 1 μM WKYMVm) [16]: 62.9%; BRET of receptor-RLuc8 with Venus-mGsi: Log EC50 (M) [16]: -5.02 log M; BRET of receptor-RLuc8 with Venus-mGsi: Emax (% of 1 μM WKYMVm) [17]: 82.7%; BRET of receptor-RLuc8 with Venus-mGsi: Log EC50 (M) [17]: -4.52 log M
